Several values for one entry are separate records, joined by “and”; a condition that tells them apart may be missing. Equal values may be shown once.
Molecular target: YFP^C-Rho5 or YFP^C-Rho5^G12V
Assay: split reporter (BiFC, NanoBiT); BiFC of candidate VN fusions with YFP^C fusions of WT or mutant Rho5 (G12V, K16N) in living yeast cells; z-stack fluorescence microscopy at 22-25°; for Atg21-VN signals quantified above a threshold set from a strain with untagged Rho5

percent of cells with YFP signal above threshold: 40 % of cells and 62 % of cells
Substance: Atg21-VN (Atg21 tagged with VN, the N-terminal fragment of Venus) (from UniProt Q02887 1-496) (natural protein)
